Experimental data as given in patent US20160031996A1 (CSL, published 2016).
Residue numbers refer to the chain shown, from its start.

Columns and labels:
[1] = target: T1, human IL-3Rα I94A, full length (human, UniProt P26951 19-378); experiment: Western blot, whole cell extracts of 293F cells
T1 construct: expressed in 293F cells; Western blot of whole cell extracts; also called I94, cell surface alanine
T1 sequence: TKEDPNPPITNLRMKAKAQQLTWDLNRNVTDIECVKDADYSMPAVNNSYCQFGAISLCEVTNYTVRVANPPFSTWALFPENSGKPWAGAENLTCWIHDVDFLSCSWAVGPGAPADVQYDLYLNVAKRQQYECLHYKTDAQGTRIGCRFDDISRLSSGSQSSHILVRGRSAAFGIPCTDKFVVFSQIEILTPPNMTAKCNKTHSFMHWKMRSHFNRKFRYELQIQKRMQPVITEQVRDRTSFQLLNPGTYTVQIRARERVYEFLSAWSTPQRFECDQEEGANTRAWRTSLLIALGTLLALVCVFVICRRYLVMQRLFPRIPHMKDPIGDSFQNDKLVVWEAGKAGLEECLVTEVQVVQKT

[2] = target: T2, human IL-3Rα Y58A, full length (human, UniProt P26951 19-378); experiment: Western blot, whole cell extracts of 293F cells
T2 construct: expressed in 293F cells; Western blot of whole cell extracts; also called Y58, cell surface alanine
T2 sequence: T1 sequence with Y40A, A76I

[3] = target: T3, human IL-3Rα P61A, full length (human, UniProt P26951 19-378); experiment: Western blot, whole cell extracts of 293F cells
T3 construct: expressed in 293F cells; Western blot of whole cell extracts; also called P61, cell surface alanine
T3 sequence: T1 sequence with P43A, A76I

[4] = target: T4, human IL-3Rα R84A, full length (human, UniProt P26951 19-378); experiment: Western blot, whole cell extracts of 293F cells
T4 construct: expressed in 293F cells; Western blot of whole cell extracts; also called R84, cell surface alanine
T4 sequence: T1 sequence with R66A, A76I

[5] = target: T5, human IL-3Rα V53A, full length (human, UniProt P26951 19-378); experiment: Western blot, whole cell extracts of 293F cells
T5 construct: expressed in 293F cells; Western blot of whole cell extracts; also called V53, cell surface alanine
T5 sequence: T1 sequence with V35A, A76I

[6] = target: T6, human IL-3Rα E51Q/P88T double mutant, full length (human, UniProt P26951 19-378); experiment: flow cytometry on transfected cells (FIG. 5)
T6 chain: T1 sequence with E33Q, P70T, A76I

Measured: binding result

B1: monoclonal antibody 7G3 (antibody, V domains shown)
VH: EVQLQQSGPELVKPGASVKMSCKASGYTFTDYYMKWVKQSHGKSLEWIGDIIPSNGATFYNQKFKGKATLTVDRSSSTAYMHLNSLTSEDSAVYYCTRSHLLRASWFAYWGQGTLVTVSA
VL: DFVMTQSPSSLTVTAGEKVTMSCKSSQSLLNSGNQKNYLTWYLQKPGQPPKLLIYWASTRESGVPDRFTGSGSGTDFTLTISSVQAEDLAVYYCQNDYSYPYTFGGGTKLEIKR
notes: mouse monoclonal antibody (hybridoma ATCC HB-12009)
not listed: [6]
no binding: all other assays above

B2: antibody CSL362 (antibody, V domains shown)
VH: EVQLVQSGAEVKKPGESLKISCKGSGYSFTDYYMKWARQMPGKGLEWMGDIIPSNGATFYNQKFKGQVTISADKSISTTYLQWSSLKASDTAMYYCARSHLLRASWFAYWGQGTMVTVSS
VL: DIVMTQSPDSLAVSLGERATINCESSQSLLNSGNQKNYLTWYQQKPGQPPKPLIYWASTRESGVPDRFSGSGSGTDFTLTISSLQAEDVAVYYCQNDYSYPYTFGQGTKLEIKR
no binding: [6]
